Patent publication US20120219503A1 (GENE TECHNO SCIENCE, published 2012)
No end group written: not given here.

Assays:
[1] = biological target: T1, hOPN5-BSA (also: conjugated to BSA, coupling site not given here); assay: ELISA, hOPN5-BSA coated on the plate
T1 construct: RGD-containing synthetic peptide coupled to the carrier BSA and coated on ELISA or adhesion plates
T1 peptide: CVDTYDGRGDSVVYGLRS
Procedure: (§1) Binding of Ch33E10 and Hu33E10-VH1/VL6 IgG1/κ antibodies to hOPN5-BSA was examined by ELISA. As an antigen, synthetic oligopeptide ([…] provided by Gene Techno Science) conjugated to bovine serum albumin (hOPN5-BSA) was used. In a typical experiment, an ELISA plate was coated with 100 μl/well of 1 μg/ml hOPN5-BSA in 0.2 M Na₂CO₃ buffer (pH 9.4) overnight at 4° C., washed with Wash Buffer, and blocked with 300 μl/well of Blocking Buffer for 1 hr at room temperature. After washing with Wash Buffer, samples appropriately diluted in ELISA Buffer were applied at 100 μl/well in the ELISA plate. After incubating the ELISA plate overnight at 4° C. and washing with Wash Buffer, bound antibodies were detected using 100 μl/well of 1/2,000-diluted HRP-conjugated goat anti-human γ chain polyclonal antibody (SouthernBiotech). After incubating for 1 hr at room temperature and washing with Wash Buffer, color development was performed by adding 100 μl/well of ABTS substrate and stopped with 100 μl/well of 2% oxalic acid. Absorbance was read at 405 nm.
Binding of Hu33E10-VH5/VL6, Hu33E10-VH7/VL6 and Hu33E10-VH7.8/VL6 antibodies to hOPN5-BSA was compared to that of Ch33E10 by ELISA as described in Section 5. […] In repeated experiments, Hu33E10-VH7/VL6 and Hu33E10-VH7.8/VL6 behaved similarly to each other for binding to hOPN5-BSA.

[2] = biological target: T1, hOPN5-BSA; assay: ELISA, hOPN5-BSA coated on the plate (conclusion)
[3] = biological target: T1, hOPN5-BSA; assay: ELISA, hOPN5-BSA coated on the plate, two independent experiments
Procedure: FIGS. 21A & 21B show ELISA analysis of the binding of Ch33E10 and Hu33E10-VH7/VLv2 IgG1/κ antibodies to hOPN5-BSA. Purified Ch33E10 and Hu33E10-VH7/VLv2 antibodies were tested at various concentrations, starting at 200 μg/ml (FIG. 21A) or 100 μg/ml (FIG. 21B) and serial 2-fold dilutions, for binding to hOPN5-BSA. The results of two independent experiments in duplicate (FIGS. 21A & 21B) are shown.
as §1, with “After incubating for 1 hr at room temperature and washing with Wash Buffer, color development was performed by adding 100 μl/well of ABTS substrate and stopped with 100 μl/well of 2% oxalic acid.” left out, “nm. […]” for “nm.”

B1: Hu33E10-VH1/VL6 IgG1/κ antibody (antibody, V domains shown)
VH: EVQLVESGGGLVQPGGSLRLSCAASGFTFTDYYMIWVRQAPGKGLEWLGFIRNKANGYTTEYSASVKGRFTISRDNAKNSLYLQMNSLRAEDTAVYYCARGAYWGQGTMVTVSS
VL: DIVMTQSPLSLPVTPGEPASISCRSSQSIVHSNGNTYLEWYLQKPGQSPQLLIYRVSNRFSGVPDRFSGSGSGTDFTLKISRVEAEDVGVYYCFQGSFVPWTFGQGTKVEIK
notes: Human IgG1/κ form; also called product of NS0-Hu33E10-2 #22
**Q.** B1 was tested. Which “fold weaker binding than Ch33E10” value [1] did it give?
**A.** ~100 fold

B2: Hu33E10-VH7/VLv2 IgG1/κ antibody (antibody, V domains shown)
VH: EVQLVESGGGLVQPGGSLRLSCAASGFTFTDYYMIWVRQAPGKGLEWLGFIRNKANGYTTEYSASVKGRFTISRDNAKSILYLQMNSLRAEDTAVYYCARGAYWGQGTMVTVSS
VL: DIVMTQSPDSLAVSLGERATISCRSSQSIVHSNGNTYLEWYLQKPGQPPKLLIYRVSNRFSGVPDRFSGSGSGTDFTLTISSLQAEDVAVYYCFQGSFVPWTFGQGTKVEIKR
notes: also called SP2-1; SP-2
**Q.** For B2, which “fold difference of affinity from Ch33E10” value [2] is on record?
**A.** ≤ 3 fold

**Q.** And the “fold difference of binding affinity from Ch33E10” value [3]?
**A.** ≤ 2 fold

B3: Hu33E10-VH7.8/VL6 IgG1/κ antibody (antibody, V domains shown)
VH: EVQLVESGGGLVQPGGSLRLSCAASGFTFTDYYMIWVRQAPGKGLEWLGFIRNKANGYTTEYSASVKGRFTISRDNSKSILYLQMNSLRAEDTAVYYCARGAYWGQGTMVTVSS
VL: DIVMTQSPLSLPVTPGEPASISCRSSQSIVHSNGNTYLEWYLQKPGQSPQLLIYRVSNRFSGVPDRFSGSGSGTDFTLKISRVEAEDVGVYYCFQGSFVPWTFGQGTKVEIKR
notes: also called EJ3-1-1; product of NS0-Hu33E10-5 1E5 (EJ3-3 1E5)
**Q.** How did the “fold lower affinity than Ch33E10” value [1] turn out when B3 was run?
**A.** ~3 fold

B4: Ch33E10 (chimeric 33E10 IgG1/κ antibody) (antibody, V domains shown)
VH: EVKLVESGGGLVQPGGSLSLSCAASGFTFTDYYMIWVRQPPGKALEWLGFIRNKANGYTTEYSASVKGRFTISRDNSQSILYLQMNALRAEDSATYYCARGAYWGQGTLVTVSA
VL: DVLMTQTPLSLPVSLGDQASISCRSSQSIVHSNGNTYLEWYLQKPGQSPKLLIYRVSNRFSGVPDRFSGSGSGTDFTLKISRVEAEDLGVYYCFQGSFVPWTFGGGTKLEIK
notes: also called product of NS0-Ch33E10 2C11 (L4-2C11)
**Q.** Does B4 bind [1]?
**A.** binds
